Experimental data taken from article PMC10939263.

B1: SRC kinase associated phosphoprotein 1 (SKAP1), wild type, N2-fused [human] / SRMS, N1-fused [not stated] (parent)
chain 1: MQAAALPEEIRWLLEDAEEFLAEGLRNENLSAVARDHRDHILRGFQQIKARYYWDFQPQGGDIGQDSSDDNHSGTLGLSLTSDAPFLSDYQDEGMEDIVKGAQELDNVIKQGYLEKKSKDHSFFGSEWQKRWCVVSRGLFYYYANEKSKQPKGTFLIKGYGVRMAPHLRRDSKKESCFELTSQDRRSYEFTATSPAEARDWVDQISFLLKDLSSLTIPYEEDEEEEEKEETYDDIDGFDSPSCGSQCRPTILPGSVGIKEPTEEKEEEDIYEVLPDEEHDLEEDESGTRRKGVDYASYYQGLWDCHGDQPDELSFQRGDLIRILSKEYNMYGWWVGELNSLVGIVPKEYLTTAFEVEER
chain 2: MEPFLRRRLAFLSFFWDKIWPAGGEPDHGTPGSLDPNTDPVPTLPAEPCSPFPQLFLALYDFTARCGGELSVRRGDRLCALEEGGGYIFARRLSGQPSAGLVPITHVAKASPETLSDQPWYFSGVSRTQAQQLLLSPPNEPGAFLIRPSESSLGGYSLSVRAQAKVCHYRVSMAADGSLYLQKGRLFPGLEELLTYYKANWKLIQNPLLQPCMPQKAPRQDVWERPHSEFALGRKLGEGYFGEVWEGLWLGSLPVAIKVIKSANMKLTDLAKEIQTLKGLRHERLIRLHAVCSGGEPVYIVTELMRKGNLQAFLGTPEGRALRLPPLLGFACQVAEGMSYLEEQRVVHRDLAARNVLVDDGLACKVADFGLARLLKDDIYSPSSSSKIPVKWTAPEAANYRVFSQKSDVWSFGVLLHEVFTYGQCPYEGMTNHETLQQIMRGYRLPRPAACPAEVYVLMLECWRSSPEERPSFATLREKLHAIHRCHP
B2: SRC kinase associated phosphoprotein 1 (SKAP1), wild type, N2-fused [human] / FRK, N1-fused [not stated] (parent)
chain 1: B1 chain 1
chain 2: MSNICQRLWEYLEPYLPCLSTEADKSTVIENPGALCSPQSQRHGHYFVALFDYQARTAEDLSFRAGDKLQVLDTLHEGWWFARHLEKRRDGSSQQLQGYIPSNYVAEDRSLQAEPWFFGAIGRSDAEKQLLYSENKTGSFLIRESESQKGEFSLSVLDGAVVKHYRIKRLDEGGFFLTRRRIFSTLNEFVSHYTKTSDGLCVKLGKPCLKIQVPAPFDLSYKTVDQWEIDRNSIQLLKRLGSGQFGEVWEGLWNNTTPVAVKTLKPGSMDPNDFLREAQIMKNLRHPKLIQLYAVCTLEDPIYIITELMRHGSLQEYLQNDTGSKIHLTQQVDMAAQVASGMAYLESRNYIHRDLAARNVLVGEHNIYKVADFGLARVFKVDNEDIYESRHEIKLPVKWTAPEAIRSNKFSIKSDVWSFGILLYEIITYGKMPYSGMTGAQVIQMLAQNYRLPQPSNCPQQFYNIMLECWNAEPKERPTFETLRWKLEDYFETDSSYSDANNFIR
B3: SRC kinase associated phosphoprotein 1 (SKAP1), wild type, N2-fused [human] / LYN, N1-fused [not stated] (parent)
chain 1: B1 chain 1
chain 2: MGCIKSKGKDSLSDDGVDLKTQPVRNTERTIYVRDPTSNKQQRPVPESQLLPGQRFQTKDPEEQGDIVVALYPYDGIHPDDLSFKKGEKMKVLEEHGEWWKAKSLLTKKEGFIPSNYVAKLNTLETEEWFFKDITRKDAERQLLAPGNSAGAFLIRESETLKGSFSLSVRDFDPVHGDVIKHYKIRSLDNGGYYISPRITFPCISDMIKHYQKQADGLCRRLEKACISPKPQKPWDKDAWEIPRESIKLVKRLGAGQFGEVWMGYYNNSTKVAVKTLKPGTMSVQAFLEEANLMKTLQHDKLVRLYAVVTREEPIYIITEYMAKGSLLDFLKSDEGGKVLLPKLIDFSAQIAEGMAYIERKNYIHRDLRAANVLVSESLMCKIADFGLARVIEDNEYTAREGAKFPIKWTAPEAINFGCFTIKSDVWSFGILLYEIVTYGKIPYPGRTNADVMTALSQGYRMPRVENCPDELYDIMKMCWKEKAEERPTFDYLQSVLDDFYTATEGQYQQQP

Variants of: B1
Assay: luciferase complementation assay (normalized luciferase ratio, NLR)
Conditions: with SRMS, HEK293T cells, one experiment, read off a plot

Row | Variant | ratio to parent
1 | chain 1 MQAAALPEEIRWLLEDAEEFLAEGLRNENLSAVARDHRDHILRGFQQIKARYYWDFQPQGGDIGQDSSDDNHSGTLGLSLTSDAPFLSDYQDEGMEDIVKGAQELDNVIKQGYLEKKSKDHSFFGSEWQKRWCVVSRGLFYYYANEKSKQPKGTFLIKGYGVRMAPHLRRDSKKESCFELTSQDRRSYEFTATSPAEARDWVDQISFLLKDLSSLTIPYEEDEEEEEKEETYDDIDGFDSPSCGSQCRPTILPGSVGIKEPTEEKEEEDIYEVLPDEEHDLEEDESGTRRKGVDYASYYQGLWDCHGDQPDELSFQRGDLIRILSKEYNMYGKWVGELNSLVGIVPKEYLTTAFEVEER [chain 1 W333K] | 1.2

Variants of: B2
Assay: as above
Conditions: with FRK, HEK293T cells, one experiment, read off a plot

Row | Variant | ratio to parent
2 | chain 1 MQAAALPEEIRWLLEDAEEFLAEGLRNENLSAVARDHRDHILRGFQQIKARYYWDFQPQGGDIGQDSSDDNHSGTLGLSLTSDAPFLSDYQDEGMEDIVKGAQELDNVIKQGYLEKKSKKHSFFGSEWQKRWCVVSRGLFYYYANEKSKQPKGTFLIKGYGVRMAPHLRRDSKKESCFELTSQDRRSYEFTATSPAEARDWVDQISFLLKDLSSLTIPYEEDEEEEEKEETYDDIDGFDSPSCGSQCRPTILPGSVGIKEPTEEKEEEDIYEVLPDEEHDLEEDESGTRRKGVDYASYYQGLWDCHGDQPDELSFQRGDLIRILSKEYNMYGWWVGELNSLVGIVPKEYLTTAFEVEER [chain 1 D120K] | 1
3 | chain 1 MQAAALPEEIRWLLEDAEEFLAEGLRNENLSAVARDHRDHILRGFQQIKARYYWDFQPQGGDIGQDSSDDNHSGTLGLSLTSDAPFLSDYQDEGMEDIVKGAQELDNVIKQGYLEKKSKDHSFFGSEWQKRWCVVSRGLFYYYANEKSKQPKGTFLIKGYGVRMAPHLRRDSKKESCFELTSQDRRSYEFTATSPAEARDWVDQISFLLKDLSSLTIPYEEDEEEEEKEETYDDIDGFDSPSCGSQCRPTILPGSVGIKEPTEEKEEEDIYEVLPDEEHDLEEDESGTRRKGVDYASYYQGLWDCHGDQPDELSFQRGDLIRILSKEYNMYGKWVGELNSLVGIVPKEYLTTAFEVEER [chain 1 W333K] | 0.84

Variants of: B3
Assay: as above
Conditions: with LYN, HEK293T cells, one experiment, read off a plot

Row | Variant | ratio to parent
4 | chain 1 D120K | 1.4
5 | chain 1 W333K | 1.8
